Paper PMC4846058

Tests used:
[1] = molecular target: cynomolgus monkey IL-17A (Macaca fascicularis); test: SPR
[2] = molecular target: ixekizumab (human); test: SPR

| Substance | Kd [1] | KD, heterogeneous ligand model, first set [2] | KD, heterogeneous ligand model, second set [2] | koff, heterogeneous ligand model, first set [2] | koff, heterogeneous ligand model, second set [2] | kon, heterogeneous ligand model, first set [2] |
| --- | --- | --- | --- | --- | --- | --- |
| ixekizumab (antibody) | 0.0008 nM |  |  |  |  |  |
| rabbit IL-17A (ligand) |  | 1.3 nM | 14 nM | 0.00017 s⁻¹ | 0.11 s⁻¹ | 150000 M⁻¹ s⁻¹ |
